These results are taken from patent US20230295310A1 (ABCELLERA BIOLOGICS, published 2023).

This experiment has as its target EGFR on HeLa cells (UniProt P00533 25-1210, limits assumed). The experiment can be described thus: cell-based or functional assay.

Where a chain is given by its changes, count along the chain named.

B1: GOMP001_bsAb_013 (bispecific antibody, human IgG1, kappa, L234A L235A)
heavy 1: QVQLVQSGAEVKKPGASVKVSCKASGYTFTSHWMHWVRKAPGQGLEWIGEFNPSNGRTNYNEEFKSKATMTVDTSTNTAYMELSSLRSEDTAVYYCASRDYDYDGRYFDYWGQGTLVTVSSASTKGPSVFPLAPSSKSTSGGTAALGCLVADYFPEPVTVSWNSGALTSGVHTFPAVLQSSGLYSLSSVVTVPSSSLGTQTYICNVNHKPSNTKVDEKVEPKSCDKTHTCPPCPAPEAAGGPSVFLFPPKPKDTLMISRTPEVTCVVVDVSHEDPEVKFNWYVDGVEVHNAKTKPREEQYNSTYRVVSVLTVLHQDWLNGKEYKCKVSNKALPAPIEKTISKAKGQPREPQVYTLPPSREEMTDNQVSLTCLVKGFYPSDIAVEWESNGQPENNYKTTPPVLMSDGSFFLASKLTVDKSRWQQGNVFSCSVMHEALHNHYTQKSLSLSPG
light 1: RIQMTQSPSSLSASVGDRVTITCSASSSVTYMYWYQDKPGKAPKLLIYDTSNLASGVPSRFSGSGSGTDYTFTISSLQPEDIATYYCQQWSSHIFTFGQGTKVEIKRTVAAPSVFIFPPSDKQLKSGTARVVCLLNNFYPREAKVQWKVDNALQSGNSQESVTEQDSKDSTYSLSSTLTLSKADYEKHKVYACEVTHQGLSSPVTKSFNRGEC
heavy 2: QVQLVQSGAEVKKPGASVKVSCKASGYTFTSYDINWVRYATGQGLEWMGWMNPKSGKTGYAQKFQGRITMTRNTPISTVYMDLSSLRSEDTAVYYCAREGHYDFWTGYYSFDYWGRGTLVTVSSASTKGPSVFPLAPSSKSTSGGTAALGCLVKDYFPEPVTVSWNSGALTSGVHTFPAVLQSSGLYSLSSVVTVPSSSLGTQTYICNVNHKPSNTKVDKKVEPKSCDKTHTCPPCPAPEAAGGPSVFLFPPKPKDTLMISRTPEVTCVVVDVSHEDPEVKFNWYVDGVEVHNAKTKPREEQYNSTYRVVSVLTVLHQDWLNGKEYKCKVSNKALPAPIEKTISKAKGQPRRPRVYTLPPSREEMTKNQVSLVCLVKGFYPSDIAVEWESNGQPENNYKTTPPVLDSDGSFFLYSVLTVDKSRWQQGNVFSCSVMHEALHNHYTQKSLSLSPG
light 2: DIQMTQSPSSLSASVGDRVTITCRASQGIRNDLGWYQRTPGDAPKRLIYAASSLQSGVPSRFSGSGSGTEFTLTISSLQPEDFATYYCLQHYSYPYTFGQGTKLEIKRTVAAPSVFIFPPSDEQLKSGTASVVCLLNNFYPREAKVQWKVDNALQSGNSQESVTEQDSKDSTYSLSSTLTLSKADYEKHKVYACEVTHQGLSSPVTKSFNRGEC
As to B1, the Max killing % was 80.8% and the “X… HeLa EC50” value is 0.668 nM.

B2: GOMP001_bsAb_016 (bispecific antibody, human IgG1, kappa, L234A L235A)
heavy 1: QVQLVESGGGVVQPGRSLRLSCAASGFTFSGYGMHWVRKAPGKGLDWVAIIYYNGNNKYYADEVKGRFTISRDNSKNTLYLQMNSLRAEDTAVYYCARGGGYNWFDPWGQGTLVIVSSASTKGPSVFPLAPSSKSTSGGTAALGCLVADYFPEPVTVSWNSGALTSGVHTFPAVLQSSGLYSLSSVVTVPSSSLGTQTYICNVNHKPSNTKVDEKVEPKSCDKTHTCPPCPAPEAAGGPSVFLFPPKPKDTLMISRTPEVTCVVVDVSHEDPEVKFNWYVDGVEVHNAKTKPREEQYNSTYRVVSVLTVLHQDWLNGKEYKCKVSNKALPAPIEKTISKAKGQPREPQVYTLPPSREEMTDNQVSLTCLVKGFYPSDIAVEWESNGQPENNYKTTPPVLMSDGSFFLASKLTVDKSRWQQGNVFSCSVMHEALHNHYTQKSLSLSPG
light 1: RIQMTQSPSSLSASVGDRVTITCRPSQSISNYLNWYQDKPGKAPKLLIYAASSLQSGVPSRFSGSGSGTDFTLTISSLQPEDFATYYCQQSYSTPFTFGRGTRLEIKRTVAAPSVFIFPPSDKQLKSGTARVVCLLNNFYPREAKVQWKVDNALQSGNSQESVTEQDSKDSTYSLSSTLTLSKADYEKHKVYACEVTHQGLSSPVTKSFNRGEC
heavy 2: QVQLVQSGAEVKKPGASVKVSCKASGYTFTSHWMHWVRYAPGQGLEWIGEFNPSNGRTNYNEKFKSKATMTVDTSTNTAYMELSSLRSEDTAVYYCASRDYDYDGRYFDYWGRGTLVTVSSASTKGPSVFPLAPSSKSTSGGTAALGCLVKDYFPEPVTVSWNSGALTSGVHTFPAVLQSSGLYSLSSVVTVPSSSLGTQTYICNVNHKPSNTKVDKKVEPKSCDKTHTCPPCPAPEAAGGPSVFLFPPKPKDTLMISRTPEVTCVVVDVSHEDPEVKFNWYVDGVEVHNAKTKPREEQYNSTYRVVSVLTVLHQDWLNGKEYKCKVSNKALPAPIEKTISKAKGQPRRPRVYTLPPSREEMTKNQVSLVCLVKGFYPSDIAVEWESNGQPENNYKTTPPVLDSDGSFFLYSVLTVDKSRWQQGNVFSCSVMHEALHNHYTQKSLSLSPG
light 2: B1 light 1 with R1D, D37R, K41D, K122E, R130S
On to B2, for which the Max killing % came out at 92% and the “X… HeLa EC50” value stood at 0.0192 nM.

B3: GOMP001_bsAb_015 (bispecific antibody, human IgG1, kappa, L234A L235A)
heavy 1: B1 heavy 1
light 1: B1 light 1
heavy 2: QVQLVESGGGVVQPGRSLRLSCAASGFTFSGYGMHWVRYAPGKGLDWVAIIYYNGNNKYYADRVKGRFTISRDNSKNTLYLQMNSLRAEDTAVYYCARGGGYNWFDPWGRGTLVIVSSASTKGPSVFPLAPSSKSTSGGTAALGCLVKDYFPEPVTVSWNSGALTSGVHTFPAVLQSSGLYSLSSVVTVPSSSLGTQTYICNVNHKPSNTKVDKKVEPKSCDKTHTCPPCPAPEAAGGPSVFLFPPKPKDTLMISRTPEVTCVVVDVSHEDPEVKFNWYVDGVEVHNAKTKPREEQYNSTYRVVSVLTVLHQDWLNGKEYKCKVSNKALPAPIEKTISKAKGQPRRPRVYTLPPSREEMTKNQVSLVCLVKGFYPSDIAVEWESNGQPENNYKTTPPVLDSDGSFFLYSVLTVDKSRWQQGNVFSCSVMHEALHNHYTQKSLSLSPG
light 2: not shown
Regarding B3, the Max killing % came to 100% and the “X… HeLa EC50” value came to 0.179 nM.

B4: GOMP001_bsAb_014 (bispecific antibody, human IgG1, kappa, L234A L235A)
heavy 1: QVQLVQSGAEVKKPGASVKVSCKASGYTFTSYDINWVRKATGQGLEWMGWMNPKSGKTGYAQEFQGRITMTRNTPISTVYMDLSSLRSEDTAVYYCAREGHYDFWTGYYSFDYWGQGTLVTVSSASTKGPSVFPLAPSSKSTSGGTAALGCLVADYFPEPVTVSWNSGALTSGVHTFPAVLQSSGLYSLSSVVTVPSSSLGTQTYICNVNHKPSNTKVDEKVEPKSCDKTHTCPPCPAPEAAGGPSVFLFPPKPKDTLMISRTPEVTCVVVDVSHEDPEVKFNWYVDGVEVHNAKTKPREEQYNSTYRVVSVLTVLHQDWLNGKEYKCKVSNKALPAPIEKTISKAKGQPREPQVYTLPPSREEMTDNQVSLTCLVKGFYPSDIAVEWESNGQPENNYKTTPPVLMSDGSFFLASKLTVDKSRWQQGNVFSCSVMHEALHNHYTQKSLSLSPG
light 1: B1 light 2 with D1R, R38D, D42K, E123K, S131R
heavy 2: B2 heavy 2
light 2: B1 light 1 with R1D, D37R, K41D, K122E, R130S
As for B4, the Max killing % turned out to be 95% and the “X… HeLa EC50” value was determined as 0.131 nM.
